Residue numbers refer to the chain shown, from its start. Names may count otherwise.
What was measured:
[1] = molecular target: T1, Rho (transcription termination factor) (Escherichia coli, UniProt P0AG30 1-419); assay: fluorescence anisotropy; 2 mM ADP-BeF3, 10 µM unlabeled dC15 blocking PBS; SBS binding / ring closure; Anisotropy: 20 mM Na-HEPES pH 7.5, 150 mM KCl, 5% glycerol, 5 mM MgCl2, 0.5 mM TCEP; 5 µM FAM-dC15 or 2 µM FAM-rU12; temperature not stated; conditions: protein: recombinant; chain copies: 6; label: 5'-FAM; single strand
[2] = molecular target: T1, Rho (transcription termination factor); assay: cryo-EM; ADP-BeF3; closed ring, 2.9 Å; Anisotropy: 20 mM Na-HEPES pH 7.5, 150 mM KCl, 5% glycerol, 5 mM MgCl2, 0.5 mM TCEP; 5 µM FAM-dC15 or 2 µM FAM-rU12; temperature not stated; conditions: protein: recombinant; chain copies: 6; boxB hairpin
Rho F89S = Rho F89S (Escherichia coli, UniProt P0AG30 1-419, F89S); assay: analytical SEC; Anisotropy: 20 mM Na-HEPES pH 7.5, 150 mM KCl, 5% glycerol, 5 mM MgCl2, 0.5 mM TCEP; 5 µM FAM-dC15 or 2 µM FAM-rU12; temperature not stated; conditions: protein: recombinant; chain copies: 6; boxB hairpin
Rho R88E = Rho R88E (Escherichia coli, UniProt P0AG30 1-419, R88E); assay: as above; conditions: protein: recombinant; chain copies: 6; boxB hairpin
[3] = molecular target: T2, Transcription termination factor ρ F89S (E. coli) (E. coli, UniProt P0AG30 1-419, F89S); assay: SEC; analytical SEC, Superdex S200 PC 3.2 column, 5 µM ρ and 90 µM Rof/variants mixed in reaction buffer (20 mM Tris-HCl pH 8.0, 120 mM KOAc, 5 mM Mg(OAc)2, 2 mM DTT), 32 °C 10 min, run at 4 °C; fractions analysed by SDS-PAGE; conditions: both partners purified
T2 construct: Transcription termination factor Rho, E. coli, with F89S

[4] = molecular target: T3, Transcription termination factor ρ K115E (E. coli) (E. coli, UniProt P0AG30 1-419, K115E); assay: as above; conditions: both partners purified
T3 construct: Transcription termination factor Rho, E. coli, with K115E

[5] = molecular target: Transcription termination factor ρ, wild type (E. coli) (E. coli, UniProt P0AG30 1-419); assay: cell-based or functional assay
[6] = molecular target: T1, Rho (transcription termination factor); assay: fluorescence anisotropy; 5 mM Mg2+; no Rof; PBS binding; Anisotropy: 20 mM Na-HEPES pH 7.5, 150 mM KCl, 5% glycerol, 5 mM MgCl2, 0.5 mM TCEP; 5 µM FAM-dC15 or 2 µM FAM-rU12; temperature not stated; conditions: protein: recombinant; chain copies: 6; label: 5'-FAM; single strand

B1: rU12 (ssRNA)
RNA: UUUUUUUUUUUU
binding result [1]: binds

B2: rut RNA (lambda tR1) (structured_RNA)
RNA: GGGAUAACCCCGCUCUUACACAUUCCAGCCCUGAAAAAGGGCAUCAAAUUAAACCACACCUAUGGUGUAUGUCAAAUUAAACCACA
binding result [2]: binds
binding result (Rho F89S): binds
binding result (Rho R88E): no binding

B3: Rof, wild type, tag-less (E. coli) (natural protein)
chain: MNDTYQPINCDDYDNLELACQHHLMLTLELKDGEKLQAKASDLVSRKNVEYLVVEAAGETRELRLDKITSFSHPEIGTVVVSES
notes: Rof (YaeO), E. coli; codon-optimised rof gene; the C-terminal residue is printed as S84 (84-residue form); the residue numbers used (I8 to S84) fit the 84-residue form; also called Rof^wt; ecRof; source: E. coli RIL (BL21), purified (Ni2+-NTA, TEV protease, Superdex 75)
binding result [3]: binds
binding result [4]: binds

B4: Rof Y13A (E. coli) (natural protein)
chain: B3 chain with Y13A
transcripts terminated by ρ in vitro (λ tR1 template; 25 nM ρ, 5 µM Rof variant); 87% in the absence of Rof [5]: 90%

B5: Rof D14A (E. coli) (natural protein)
chain: B3 chain with D14A
transcripts terminated by ρ in vitro (λ tR1 template; 25 nM ρ, 5 µM Rof variant); 87% in the absence of Rof [5]: 86%

B6: Rof E17A (E. coli) (natural protein)
chain: B3 chain with E17A
transcripts terminated by ρ in vitro (λ tR1 template; 25 nM ρ, 5 µM Rof variant); 87% in the absence of Rof [5]: 25%

B7: dC15 (ssDNA)
DNA: CCCCCCCCCCCCCCC
Kd [6]: 1000 nM

From article PMC11018626, “Sm-like protein Rof inhibits transcription termination factor ρ by binding site obstruction and conformational insulation” (Nature Communications, 2023)
